# In patent US8936925B2, “Reconstitution of 5-enolpyruvylshikimate-3-phosphate synthase activity by fragment complementation” (priority 2004, dated 2015):
# Test system: aroA gene-mutant E. coli strain AB2829
# Test: In vivo complementation: growth on solid M63 restrictive medium
# Assay type: cell-based
# Parameters: key: −: failed to grow; +: able to grow
# Details: C-terminal fragment alone
# Excerpt: The pKU2100 plasmid constructed as described above and corresponding pACYC1184 plasmid were introduced separately or together into the strain AB2829 deficient in E. coli aroA gene. Then, the strain was streaked on solid M63 restrictive medium and cultured overnight to determine the growth.
# In order to test if EPSPS achieves fragment complementation after in vivo expression, genes encoding EPSPS N-terminal peptides were constructed into pACYC184, and genes encoding EPSPS C-terminal peptides were constructed into pBR322 (see the section Materials and Methods for the detailed construction method). Afterwards, these plasmids were introduced into aroA gene-mutant E. coli strain AB2829. EPSPS activity of the protein fragments encoded by these genes was determined by the growth of the strains on M63 restrictive medium.
# The pACYC184 and pBR322 plasmids are able to be expressed in the same bacterial cell since they have replicons p15A and ColE1 respectively. In this regard, a pACYC184 plasmid was co-introduced into aroA gene-mutant E. coli strain AB2829 together with a corresponding pKU2100 plasmid, wherein the N-terminal peptide encoded by the pACYC184 plasmid and C-terminal peptide encoded by the pKU2100 plasmid are the two fragments divided at the same site from EPSPS. The resulting strains are streaked on M63 restrictive medium, and cultured at 37° C.
# The pBR322 plasmids constructed in section 3.5 a and their relevant pACYC1184 plasmids constructed in section 3.5 b were introduced respectively or together into E. coli strain AB2829 deficient in aroA gene. Then the strains were streaked on solid M63 restrictive medium and cultured overnight to test the growth.
row,Molecule,"complementation condition, C-terminal"
1,"C228: E. coli EPSPS C-terminal fragment, residue 228 to C-terminus (protein, UniProt P0A6D3 228-427, looked up, fragment) GQSYQSPGTYLVEGDASSASYFLAAAAIKGGTVKVTGIGRNSMQGDIRFADVLEKMGATICWGDDYISCTRGELNAIDMDMNHIPDAAMTIATAALFAKGTTTLRNIYNWRVKETDRLFAMATELRKVGAEVEEGHDYIRITPPEKLNFAEIATYNDHRMAMCFSLVALSDTPVTILDPKCTAKTFPDYFEQLARISQAA",−
2,"C235: E. coli EPSPS C-terminal fragment, residue 235 to C-terminus (protein, UniProt P0A6D3 235-427, looked up, fragment) GTYLVEGDASSASYFLAAAAIKGGTVKVTGIGRNSMQGDIRFADVLEKMGATICWGDDYISCTRGELNAIDMDMNHIPDAAMTIATAALFAKGTTTLRNIYNWRVKETDRLFAMATELRKVGAEVEEGHDYIRITPPEKLNFAEIATYNDHRMAMCFSLVALSDTPVTILDPKCTAKTFPDYFEQLARISQAA",−
3,"C239: E. coli EPSPS C-terminal fragment, residue 239 to C-terminus (protein, UniProt P0A6D3 239-427, looked up, fragment) VEGDASSASYFLAAAAIKGGTVKVTGIGRNSMQGDIRFADVLEKMGATICWGDDYISCTRGELNAIDMDMNHIPDAAMTIATAALFAKGTTTLRNIYNWRVKETDRLFAMATELRKVGAEVEEGHDYIRITPPEKLNFAEIATYNDHRMAMCFSLVALSDTPVTILDPKCTAKTFPDYFEQLARISQAA",−
4,"C241: E. coli EPSPS C-terminal fragment, residue 241 to C-terminus (protein, UniProt P0A6D3 241-427, looked up, fragment) GDASSASYFLAAAAIKGGTVKVTGIGRNSMQGDIRFADVLEKMGATICWGDDYISCTRGELNAIDMDMNHIPDAAMTIATAALFAKGTTTLRNIYNWRVKETDRLFAMATELRKVGAEVEEGHDYIRITPPEKLNFAEIATYNDHRMAMCFSLVALSDTPVTILDPKCTAKTFPDYFEQLARISQAA",−
5,"C225: E. coli EPSPS C-terminal fragment, residue 225 to C-terminus (protein, UniProt P0A6D3 225-427, looked up, fragment) VKGGQSYQSPGTYLVEGDASSASYFLAAAAIKGGTVKVTGIGRNSMQGDIRFADVLEKMGATICWGDDYISCTRGELNAIDMDMNHIPDAAMTIATAALFAKGTTTLRNIYNWRVKETDRLFAMATELRKVGAEVEEGHDYIRITPPEKLNFAEIATYNDHRMAMCFSLVALSDTPVTILDPKCTAKTFPDYFEQLARISQAA",−
6,"C299: E. coli EPSPS C-terminal fragment, residue 299 to C-terminus (protein, UniProt P0A6D3 299-427, looked up, fragment) GELNAIDMDMNHIPDAAMTIATAALFAKGTTTLRNIYNWRVKETDRLFAMATELRKVGAEVEEGHDYIRITPPEKLNFAEIATYNDHRMAMCFSLVALSDTPVTILDPKCTAKTFPDYFEQLARISQAA",−
7,"C246: E. coli EPSPS C-terminal fragment, residue 246 to C-terminus (protein, UniProt P0A6D3 246-427, looked up, fragment) ASYFLAAAAIKGGTVKVTGIGRNSMQGDIRFADVLEKMGATICWGDDYISCTRGELNAIDMDMNHIPDAAMTIATAALFAKGTTTLRNIYNWRVKETDRLFAMATELRKVGAEVEEGHDYIRITPPEKLNFAEIATYNDHRMAMCFSLVALSDTPVTILDPKCTAKTFPDYFEQLARISQAA",−
8,"C260: E. coli EPSPS C-terminal fragment, residue 260 to C-terminus (protein, UniProt P0A6D3 260-427, looked up, fragment) VKVTGIGRNSMQGDIRFADVLEKMGATICWGDDYISCTRGELNAIDMDMNHIPDAAMTIATAALFAKGTTTLRNIYNWRVKETDRLFAMATELRKVGAEVEEGHDYIRITPPEKLNFAEIATYNDHRMAMCFSLVALSDTPVTILDPKCTAKTFPDYFEQLARISQAA",−

# Same assay, conditions: N-terminal fragment alone
row,Molecule,"complementation condition, N-terminal"
1,"N234: E. coli EPSPS N-terminal fragment, N-terminus to residue 234 (protein, UniProt P0A6D3 1-234, looked up, fragment) MESLTLQPIARVDGTINLPGSKSVSNRALLLAALAHGKTVLTNLLDSDDVRHMLNALTALGVSYTLSADRTRCEIIGNGGPLHAEGALELFLGNAGTAMRPLAAALCLGSNDIVLTGEPRMKERPIGHLVDALRLGGAKITYLEQENYPPLRLQGGFTGGNVDVDGSVSSQFLTALLMTAPLAPEDTVIRIKGDLVSKPYIDITLNLMKTFGVEIENQHYQQFVVKGGQSYQSP",−
2,"N298: E. coli EPSPS N-terminal fragment, N-terminus to residue 298 (protein, UniProt P0A6D3 1-298, looked up, fragment) MESLTLQPIARVDGTINLPGSKSVSNRALLLAALAHGKTVLTNLLDSDDVRHMLNALTALGVSYTLSADRTRCEIIGNGGPLHAEGALELFLGNAGTAMRPLAAALCLGSNDIVLTGEPRMKERPIGHLVDALRLGGAKITYLEQENYPPLRLQGGFTGGNVDVDGSVSSQFLTALLMTAPLAPEDTVIRIKGDLVSKPYIDITLNLMKTFGVEIENQHYQQFVVKGGQSYQSPGTYLVEGDASSASYFLAAAAIKGGTVKVTGIGRNSMQGDIRFADVLEKMGATICWGDDYISCTR",−
3,"N245: E. coli EPSPS N-terminal fragment, N-terminus to residue 245 (protein, UniProt P0A6D3 1-245, looked up, fragment) MESLTLQPIARVDGTINLPGSKSVSNRALLLAALAHGKTVLTNLLDSDDVRHMLNALTALGVSYTLSADRTRCEIIGNGGPLHAEGALELFLGNAGTAMRPLAAALCLGSNDIVLTGEPRMKERPIGHLVDALRLGGAKITYLEQENYPPLRLQGGFTGGNVDVDGSVSSQFLTALLMTAPLAPEDTVIRIKGDLVSKPYIDITLNLMKTFGVEIENQHYQQFVVKGGQSYQSPGTYLVEGDASS",−
4,"N240: E. coli EPSPS N-terminal fragment, N-terminus to residue 240 (protein, UniProt P0A6D3 1-240, looked up, fragment) MESLTLQPIARVDGTINLPGSKSVSNRALLLAALAHGKTVLTNLLDSDDVRHMLNALTALGVSYTLSADRTRCEIIGNGGPLHAEGALELFLGNAGTAMRPLAAALCLGSNDIVLTGEPRMKERPIGHLVDALRLGGAKITYLEQENYPPLRLQGGFTGGNVDVDGSVSSQFLTALLMTAPLAPEDTVIRIKGDLVSKPYIDITLNLMKTFGVEIENQHYQQFVVKGGQSYQSPGTYLVE",−
5,"N224: E. coli EPSPS N-terminal fragment, N-terminus to residue 224 (protein, UniProt P0A6D3 1-224, looked up, fragment) MESLTLQPIARVDGTINLPGSKSVSNRALLLAALAHGKTVLTNLLDSDDVRHMLNALTALGVSYTLSADRTRCEIIGNGGPLHAEGALELFLGNAGTAMRPLAAALCLGSNDIVLTGEPRMKERPIGHLVDALRLGGAKITYLEQENYPPLRLQGGFTGGNVDVDGSVSSQFLTALLMTAPLAPEDTVIRIKGDLVSKPYIDITLNLMKTFGVEIENQHYQQFV",−
6,"N259: E. coli EPSPS N-terminal fragment, N-terminus to residue 259 (protein, UniProt P0A6D3 1-259, looked up, fragment) MESLTLQPIARVDGTINLPGSKSVSNRALLLAALAHGKTVLTNLLDSDDVRHMLNALTALGVSYTLSADRTRCEIIGNGGPLHAEGALELFLGNAGTAMRPLAAALCLGSNDIVLTGEPRMKERPIGHLVDALRLGGAKITYLEQENYPPLRLQGGFTGGNVDVDGSVSSQFLTALLMTAPLAPEDTVIRIKGDLVSKPYIDITLNLMKTFGVEIENQHYQQFVVKGGQSYQSPGTYLVEGDASSASYFLAAAAIKGGT",−
7,"N227: E. coli EPSPS N-terminal fragment, N-terminus to residue 227 (protein, UniProt P0A6D3 1-227, looked up, fragment) MESLTLQPIARVDGTINLPGSKSVSNRALLLAALAHGKTVLTNLLDSDDVRHMLNALTALGVSYTLSADRTRCEIIGNGGPLHAEGALELFLGNAGTAMRPLAAALCLGSNDIVLTGEPRMKERPIGHLVDALRLGGAKITYLEQENYPPLRLQGGFTGGNVDVDGSVSSQFLTALLMTAPLAPEDTVIRIKGDLVSKPYIDITLNLMKTFGVEIENQHYQQFVVKG",−
8,"N238: E. coli EPSPS N-terminal fragment, N-terminus to residue 238 (protein, UniProt P0A6D3 1-238, looked up, fragment) MESLTLQPIARVDGTINLPGSKSVSNRALLLAALAHGKTVLTNLLDSDDVRHMLNALTALGVSYTLSADRTRCEIIGNGGPLHAEGALELFLGNAGTAMRPLAAALCLGSNDIVLTGEPRMKERPIGHLVDALRLGGAKITYLEQENYPPLRLQGGFTGGNVDVDGSVSSQFLTALLMTAPLAPEDTVIRIKGDLVSKPYIDITLNLMKTFGVEIENQHYQQFVVKGGQSYQSPGTYL",−
